{"source": "paper PMC9088798", "about": "“An Approach to Derive Functional Peptide Inhibitors of Transcription Factor Activity” (JACS Au, 2022)", "system": "WT-mDHFR", "experiment": "DHFR activity assay (NADPH turnover at 340 nm), WT-mDHFR", "format": "biochemical, murine", "conditions": "100 nM WT-mDHFR, 60 µM NADPH, 50 µM DHF, no inhibitor; absorbance 340 nm; first 2.5 min, blank subtracted; average of triplicate experiments, one SD", "experimental": "(A) Fifteen TRE sites were introduced into the mDHFR gene (2 silent and 13 substitutions) to allow for a cJun-induced transcriptional block. […] Change in absorbance at 340 nm was measured to determine the rate of NADPH turnover by (B) WT-mDHFR and (C) TRE-mDHFR with or without the substrate DHF. […] Specific activity was calculated from the linear initial rate (first 2.5 min for WT-mDHFR, first 10 min for TRE-mDHFR; +NADPH only reaction blank subtracted). Data are averages from triplicate experiments with errors shown as one standard deviation.\nJupiter Proteo column (4-μm particle size, 90 Å pore size, 250 × 10 mm; Phenomenex) using a water:acetonitrile gradient (0.1% TFA). Peptides without a SUMO tag, were concentrated after Histrap elution and HPLC purified. […]\nor Mtx (1 µM in reaction). Reactions were initiated by the addition of DHF (50 µM in reaction plus a blank reaction with no DHF) and the absorbance at 340 nm of samples was measured using a Varian Cary 50 UV-Vis spectrophotometer. The specific activity (∆OD/minsample― ∆OD/minblank) was calculated using the following equation. Specific activity = 12.3× mg protein Library Construction and TBS Assay: Library inserts were produced using PCR fill-in reactions from synthesised primers (Sigma) with degenerate codons at the desired positions to produce the correct residue options. […]"}
{"molecule": "WT-mDHFR: wild-type murine dihydrofolate reductase, 6xHis-tagged (protein, UniProt P00375 2-187, looked up, 6xHis tag, wild-type murine dihydrofolate reductase, 6xHis-tagged) Dihydrofolate reductase: VRPLNCIVAVSQNMGIGKNGDLPWPPLRNEFKYFQRMTTTSSVEGKQNLVIMGRKTWFSIPEKNRPLKDRINIVLSRELKEPPRGAHFLAKSLDDALRLIEQPELASKVDMVWIVGGSSVYQEAMNQPGHLRLFVTRIMQEFESDTFFPEIDLGKYKLLPEYPGVLSEVQEEKGIKYKFEVYEKKD", "values": [{"measurement": "Specific activity, +NADPH+DHF", "value": "0.263 ± 0.002", "unit": "μmol / min / mg protein"}]}
